Molecular target: anti-BCR-ABL 1A-2A-3B/VP16 fusion (synthetic construct)
Test: cell_activity; C3H10T1/2 cells
Text: Having established DNA discrimination in vitro, the inventors wished to test whether the anti-BCR-ABL peptide was capable of site-specific DNA-binding in vivo. The peptide was fused to the VP16 activation domain from herpes simplex virus (Fields 1993 Methods 5, 116–124) and used in transient transfection assays (FIG. 9) to drive production of a CAT (chloramphenicol acetyl transferase) reporter gene from a binding site upstream of the TATA box (Gorman et al., Mol. Cell. Biol. 2, 1044–1051). In detail the experiment was performed thus: reporter plasmids pMCAT6BA, pMCAT6A, and pMCAT6B, were constructed by inserting 6 copies of the p190^BCR-ABL target site ([…], SEQ ID No. 121), the c-ABL second exon-intron junction sequence ([…], Seq ID No. 122), or the BCR first exon-intron junction sequence ([…] Seq ID No. 123) respectively, into pMCAT3 (Luscher et al., 1989 Genes Dev. 3, 1507–1517). The anti-BCR-ABL/VP16 expression vector was generated by inserting the in-frame fusion between the activation domain of herpes simplex virus VP16 (Fields 1993) and the Zn finger peptide in the pEF-BOS vector (Mizushima & Shigezaku 1990 Nucl. Acids Res. 18, 5322). C3H10T1/2 cells were transiently co-transfected with […] of reporter plasmid and […] of expression vector. […]

B1: p190 BCR-ABL site x6 reporter pMCAT6BA (dsDNA)
DNA 1: CGCAGAAGCC
DNA 2: GGCTTCTGCG
Q: Which activity does the source give for B1 here?
A: ~30 fold CAT activation

From US6013453, “Binding proteins for recognition of DNA” (Medical Research Council)
